The supplement of paper PMC9112550, “Optimization of the antimicrobial peptide Bac7 by deep mutational scanning” (BMC Biology, 2022)

System: Escherichia coli TOP10
Experiment: shrunken log2 fold change of peptide-encoding DNA abundance (4.5 h post-induction vs induction); higher = less antimicrobial activity (less host growth inhibition)
Settings: time post-induction: 4.5 h; library: site-saturation at positions 5, 18, 19, 20
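Also: peptides expressed intracellularly from a pBAD plasmid library in pooled LB shake-flask culture, induced with 0.3% L-arabinose, DNA abundance read by NGS, three biological replicates, DESeq2 with apeglm shrinkage.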

Sequence: RRIRARPPRLPRPRPRPIESPRP
- shrunken log2 fold change: 0.0614

Sequence: RRIRARPPRLPRPRPRPIFCPRP
- shrunken log2 fold change: 0.445

Sequence: RRIRARPPRLPRPRPRPIFQPRP
- shrunken log2 fold change: 0.116

Sequence: RRIRARPPRLPRPRPRPIHRPRP
- shrunken log2 fold change: -0.26

Sequence: RRIRARPPRLPRPRPRPIHWPRP
- shrunken log2 fold change: 0.0725

Sequence: RRIRARPPRLPRPRPRPIKAPRP
- shrunken log2 fold change: 0.105

Sequence: RRIRARPPRLPRPRPRPIKPPRP
- shrunken log2 fold change: 0.0335

Sequence: RRIRARPPRLPRPRPRPIKVPRP
- shrunken log2 fold change: -0.104

Sequence: RRIRARPPRLPRPRPRPILAPRP
- shrunken log2 fold change: 0.147

Sequence: RRIRARPPRLPRPRPRPILFPRP
- shrunken log2 fold change: -0.166

Sequence: RRIRARPPRLPRPRPRPINAPRP
- shrunken log2 fold change: -0.256

Sequence: RRIRARPPRLPRPRPRPINCPRP
- shrunken log2 fold change: -0.0513

Sequence: RRIRARPPRLPRPRPRPINDPRP
- shrunken log2 fold change: 0.00287

Sequence: RRIRARPPRLPRPRPRPIPKPRP
- shrunken log2 fold change: 0.394

Sequence: RRIRARPPRLPRPRPRPIPVPRP
- shrunken log2 fold change: 0.161

Sequence: RRIRARPPRLPRPRPRPISHPRP
- shrunken log2 fold change: -0.131

Sequence: RRIRARPPRLPRPRPRPISYPRP
- shrunken log2 fold change: -0.545

Sequence: RRIRARPPRLPRPRPRPITFPRP
- shrunken log2 fold change: 0.051

Sequence: RRIRARPPRLPRPRPRPITLPRP
- shrunken log2 fold change: -0.13

Sequence: RRIRARPPRLPRPRPRPITYPRP
- shrunken log2 fold change: -0.0353

Sequence: RRIRARPPRLPRPRPRPIVEPRP
- shrunken log2 fold change: 0.207

Sequence: RRIRARPPRLPRPRPRPIWCPRP
- shrunken log2 fold change: 0.00499

Sequence: RRIRARPPRLPRPRPRPIYAPRP
- shrunken log2 fold change: 0.144

Sequence: RRIRARPPRLPRPRPRPKCDPRP
- shrunken log2 fold change: 0.39

Sequence: RRIRARPPRLPRPRPRPKDIPRP
- shrunken log2 fold change: -0.00725

Sequence: RRIRARPPRLPRPRPRPKDRPRP
- shrunken log2 fold change: 0.145

Sequence: RRIRARPPRLPRPRPRPKEAPRP
- shrunken log2 fold change: 0.516

Sequence: RRIRARPPRLPRPRPRPKEDPRP
- shrunken log2 fold change: 0.133

Sequence: RRIRARPPRLPRPRPRPKEHPRP
- shrunken log2 fold change: 0.217

Sequence: RRIRARPPRLPRPRPRPKFCPRP
- shrunken log2 fold change: 0.22

Sequence: RRIRARPPRLPRPRPRPKFWPRP
- shrunken log2 fold change: 0.696

Sequence: RRIRARPPRLPRPRPRPKHTPRP
- shrunken log2 fold change: 0.264

Sequence: RRIRARPPRLPRPRPRPKIVPRP
- shrunken log2 fold change: -0.0715

Sequence: RRIRARPPRLPRPRPRPKKIPRP
- shrunken log2 fold change: 0.489

Sequence: RRIRARPPRLPRPRPRPKLKPRP
- shrunken log2 fold change: 0.272

Sequence: RRIRARPPRLPRPRPRPKPRPRP
- shrunken log2 fold change: 1.9

Sequence: RRIRARPPRLPRPRPRPKQCPRP
- shrunken log2 fold change: 0.123

Sequence: RRIRARPPRLPRPRPRPKQIPRP
- shrunken log2 fold change: 0.146

Sequence: RRIRARPPRLPRPRPRPKQYPRP
- shrunken log2 fold change: -0.0335

Sequence: RRIRARPPRLPRPRPRPKREPRP
- shrunken log2 fold change: 0.422

Sequence: RRIRARPPRLPRPRPRPKSGPRP
- shrunken log2 fold change: 0.166

Sequence: RRIRARPPRLPRPRPRPKSRPRP
- shrunken log2 fold change: 0.474

Sequence: RRIRARPPRLPRPRPRPKSWPRP
- shrunken log2 fold change: 0.89

Sequence: RRIRARPPRLPRPRPRPKWVPRP
- shrunken log2 fold change: 0.222

Sequence: RRIRARPPRLPRPRPRPKYYPRP
- shrunken log2 fold change: -0.179

Sequence: RRIRARPPRLPRPRPRPLATPRP
- shrunken log2 fold change: 0.647

Sequence: RRIRARPPRLPRPRPRPLCHPRP
- shrunken log2 fold change: 0.173

Sequence: RRIRARPPRLPRPRPRPLDAPRP
- shrunken log2 fold change: 0.746

Sequence: RRIRARPPRLPRPRPRPLDEPRP
- shrunken log2 fold change: 1.53

Sequence: RRIRARPPRLPRPRPRPLDIPRP
- shrunken log2 fold change: 0.0659

Sequence: RRIRARPPRLPRPRPRPLDRPRP
- shrunken log2 fold change: -0.233

Sequence: RRIRARPPRLPRPRPRPLETPRP
- shrunken log2 fold change: 0.9

Sequence: RRIRARPPRLPRPRPRPLFMPRP
- shrunken log2 fold change: -0.166

Sequence: RRIRARPPRLPRPRPRPLGCPRP
- shrunken log2 fold change: 0.904

Sequence: RRIRARPPRLPRPRPRPLGVPRP
- shrunken log2 fold change: 1.44

Sequence: RRIRARPPRLPRPRPRPLIDPRP
- shrunken log2 fold change: 0.647

Sequence: RRIRARPPRLPRPRPRPLLRPRP
- shrunken log2 fold change: 0.103

Sequence: RRIRARPPRLPRPRPRPLMIPRP
- shrunken log2 fold change: -0.138

Sequence: RRIRARPPRLPRPRPRPLNCPRP
- shrunken log2 fold change: -0.08

Sequence: RRIRARPPRLPRPRPRPLNTPRP
- shrunken log2 fold change: -0.169

Sequence: RRIRARPPRLPRPRPRPLSLPRP
- shrunken log2 fold change: -0.0486

Sequence: RRIRARPPRLPRPRPRPLSTPRP
- shrunken log2 fold change: 0.319

Sequence: RRIRARPPRLPRPRPRPLSYPRP
- shrunken log2 fold change: -0.00336

Sequence: RRIRARPPRLPRPRPRPLVNPRP
- shrunken log2 fold change: 0.0552

Sequence: RRIRARPPRLPRPRPRPLWSPRP
- shrunken log2 fold change: 0.263

Sequence: RRIRARPPRLPRPRPRPLYLPRP
- shrunken log2 fold change: -0.367

Sequence: RRIRARPPRLPRPRPRPMCCPRP
- shrunken log2 fold change: 0.335

Sequence: RRIRARPPRLPRPRPRPMDCPRP
- shrunken log2 fold change: 0.181

Sequence: RRIRARPPRLPRPRPRPMDMPRP
- shrunken log2 fold change: -0.128

Sequence: RRIRARPPRLPRPRPRPMDTPRP
- shrunken log2 fold change: 0.143

Sequence: RRIRARPPRLPRPRPRPMIAPRP
- shrunken log2 fold change: 0.263

Sequence: RRIRARPPRLPRPRPRPMIWPRP
- shrunken log2 fold change: 0.415

Sequence: RRIRARPPRLPRPRPRPMKCPRP
- shrunken log2 fold change: -0.0407

Sequence: RRIRARPPRLPRPRPRPMMNPRP
- shrunken log2 fold change: 0.198

Sequence: RRIRARPPRLPRPRPRPMMSPRP
- shrunken log2 fold change: 0.186

Sequence: RRIRARPPRLPRPRPRPMRAPRP
- shrunken log2 fold change: 1.25

Sequence: RRIRARPPRLPRPRPRPMRHPRP
- shrunken log2 fold change: 0.38

Sequence: RRIRARPPRLPRPRPRPMRIPRP
- shrunken log2 fold change: 0.155

Sequence: RRIRARPPRLPRPRPRPMRPPRP
- shrunken log2 fold change: 0.342

Sequence: RRIRARPPRLPRPRPRPMSAPRP
- shrunken log2 fold change: 0.361

Sequence: RRIRARPPRLPRPRPRPMSDPRP
- shrunken log2 fold change: 0.56

Sequence: RRIRARPPRLPRPRPRPMSMPRP
- shrunken log2 fold change: 0.0853

Sequence: RRIRARPPRLPRPRPRPMTFPRP
- shrunken log2 fold change: -0.191

Sequence: RRIRARPPRLPRPRPRPMWIPRP
- shrunken log2 fold change: 0.249

Sequence: RRIRARPPRLPRPRPRPMWMPRP
- shrunken log2 fold change: 0.0208

Sequence: RRIRARPPRLPRPRPRPMYDPRP
- shrunken log2 fold change: 0.15

Sequence: RRIRARPPRLPRPRPRPMYGPRP
- shrunken log2 fold change: 0.22

Sequence: RRIRARPPRLPRPRPRPMYTPRP
- shrunken log2 fold change: -0.0517

Sequence: RRIRARPPRLPRPRPRPNACPRP
- shrunken log2 fold change: -0.175

Sequence: RRIRARPPRLPRPRPRPNADPRP
- shrunken log2 fold change: 0.825

Sequence: RRIRARPPRLPRPRPRPNAGPRP
- shrunken log2 fold change: 0.315

Sequence: RRIRARPPRLPRPRPRPNAIPRP
- shrunken log2 fold change: 0.201

Sequence: RRIRARPPRLPRPRPRPNAMPRP
- shrunken log2 fold change: 0.272

Sequence: RRIRARPPRLPRPRPRPNDIPRP
- shrunken log2 fold change: -0.448

Sequence: RRIRARPPRLPRPRPRPNFQPRP
- shrunken log2 fold change: -0.0343

Sequence: RRIRARPPRLPRPRPRPNFRPRP
- shrunken log2 fold change: 0.376

Sequence: RRIRARPPRLPRPRPRPNGAPRP
- shrunken log2 fold change: 0.0281

Sequence: RRIRARPPRLPRPRPRPNGIPRP
- shrunken log2 fold change: -0.109

Sequence: RRIRARPPRLPRPRPRPNIPPRP
- shrunken log2 fold change: -0.223

Sequence: RRIRARPPRLPRPRPRPNIYPRP
- shrunken log2 fold change: -0.418

Sequence: RRIRARPPRLPRPRPRPNKGPRP
- shrunken log2 fold change: -0.0254

Sequence: RRIRARPPRLPRPRPRPNKPPRP
- shrunken log2 fold change: -0.0887

Sequence: RRIRARPPRLPRPRPRPNLHPRP
- shrunken log2 fold change: 0.0181

Sequence: RRIRARPPRLPRPRPRPNLSPRP
- shrunken log2 fold change: -0.0536

Sequence: RRIRARPPRLPRPRPRPNLVPRP
- shrunken log2 fold change: -0.0779

Sequence: RRIRARPPRLPRPRPRPNMFPRP
- shrunken log2 fold change: -0.0712

Sequence: RRIRARPPRLPRPRPRPNQYPRP
- shrunken log2 fold change: -0.801

Sequence: RRIRARPPRLPRPRPRPNRFPRP
- shrunken log2 fold change: 0.145

Sequence: RRIRARPPRLPRPRPRPNRRPRP
- shrunken log2 fold change: 0.366

Sequence: RRIRARPPRLPRPRPRPNSTPRP
- shrunken log2 fold change: 0.0264

Sequence: RRIRARPPRLPRPRPRPNWGPRP
- shrunken log2 fold change: -0.267

Sequence: RRIRARPPRLPRPRPRPNWIPRP
- shrunken log2 fold change: 0.00102

Sequence: RRIRARPPRLPRPRPRPNYRPRP
- shrunken log2 fold change: 0.0835

Sequence: RRIRARPPRLPRPRPRPPAFPRP
- shrunken log2 fold change: 1.04

Sequence: RRIRARPPRLPRPRPRPPARPRP
- shrunken log2 fold change: 0.874

Sequence: RRIRARPPRLPRPRPRPPCSPRP
- shrunken log2 fold change: 0.752

Sequence: RRIRARPPRLPRPRPRPPDHPRP
- shrunken log2 fold change: 0.683

Sequence: RRIRARPPRLPRPRPRPPEGPRP
- shrunken log2 fold change: 0.783

Sequence: RRIRARPPRLPRPRPRPPFYPRP
- shrunken log2 fold change: 0.14

Sequence: RRIRARPPRLPRPRPRPPHCPRP
- shrunken log2 fold change: 0.521

Sequence: RRIRARPPRLPRPRPRPPHIPRP
- shrunken log2 fold change: 0.455

Sequence: RRIRARPPRLPRPRPRPPHPPRP
- shrunken log2 fold change: 0.527

Sequence: RRIRARPPRLPRPRPRPPICPRP
- shrunken log2 fold change: -0.0154

Sequence: RRIRARPPRLPRPRPRPPIRPRP
- shrunken log2 fold change: -0.131

Sequence: RRIRARPPRLPRPRPRPPITPRP
- shrunken log2 fold change: 0.261

Sequence: RRIRARPPRLPRPRPRPPKDPRP
- shrunken log2 fold change: 1.78

Sequence: RRIRARPPRLPRPRPRPPKIPRP
- shrunken log2 fold change: 0.327

Sequence: RRIRARPPRLPRPRPRPPKKPRP
- shrunken log2 fold change: 0.342

Sequence: RRIRARPPRLPRPRPRPPLCPRP
- shrunken log2 fold change: 0.762

Sequence: RRIRARPPRLPRPRPRPPMFPRP
- shrunken log2 fold change: 0.283

Sequence: RRIRARPPRLPRPRPRPPNTPRP
- shrunken log2 fold change: 0.289

Sequence: RRIRARPPRLPRPRPRPPPEPRP
- shrunken log2 fold change: 1.24

Sequence: RRIRARPPRLPRPRPRPPPFPRP
- shrunken log2 fold change: 0.762

Sequence: RRIRARPPRLPRPRPRPPQCPRP
- shrunken log2 fold change: 0.585

Sequence: RRIRARPPRLPRPRPRPPQWPRP
- shrunken log2 fold change: 0.814

Sequence: RRIRARPPRLPRPRPRPPVPPRP
- shrunken log2 fold change: 0.638

Sequence: RRIRARPPRLPRPRPRPPWGPRP
- shrunken log2 fold change: 0.48

Sequence: RRIRARPPRLPRPRPRPPWVPRP
- shrunken log2 fold change: 0.254

Sequence: RRIRARPPRLPRPRPRPPYHPRP
- shrunken log2 fold change: -0.102

Sequence: RRIRARPPRLPRPRPRPQAIPRP
- shrunken log2 fold change: 0.281

Sequence: RRIRARPPRLPRPRPRPQCNPRP
- shrunken log2 fold change: -0.104

Sequence: RRIRARPPRLPRPRPRPQCRPRP
- shrunken log2 fold change: -0.161

Sequence: RRIRARPPRLPRPRPRPQFAPRP
- shrunken log2 fold change: 0.402

Sequence: RRIRARPPRLPRPRPRPQFNPRP
- shrunken log2 fold change: -0.0606

Sequence: RRIRARPPRLPRPRPRPQFQPRP
- shrunken log2 fold change: 0.0187

Sequence: RRIRARPPRLPRPRPRPQGKPRP
- shrunken log2 fold change: 0.128

Sequence: RRIRARPPRLPRPRPRPQHMPRP
- shrunken log2 fold change: -0.414

Sequence: RRIRARPPRLPRPRPRPQHWPRP
- shrunken log2 fold change: 0.0917

Sequence: RRIRARPPRLPRPRPRPQKLPRP
- shrunken log2 fold change: 0.298

Sequence: RRIRARPPRLPRPRPRPQKTPRP
- shrunken log2 fold change: 0.0194
